Source: patent US20130224224A1 (Boehringer Ingelheim, published 2013)
Changes are numbered by the printed parent chain. Read-outs that look alike come from different tables or passages of the source.

T1: cynomolgus CX3CR1 (cynomolgus, UniProt P49238 1-355 (human entry))
T1 construct: transiently expressed on HEK293T cells; also called cyCX3CR1; cyno CX3CR1
T1 chain: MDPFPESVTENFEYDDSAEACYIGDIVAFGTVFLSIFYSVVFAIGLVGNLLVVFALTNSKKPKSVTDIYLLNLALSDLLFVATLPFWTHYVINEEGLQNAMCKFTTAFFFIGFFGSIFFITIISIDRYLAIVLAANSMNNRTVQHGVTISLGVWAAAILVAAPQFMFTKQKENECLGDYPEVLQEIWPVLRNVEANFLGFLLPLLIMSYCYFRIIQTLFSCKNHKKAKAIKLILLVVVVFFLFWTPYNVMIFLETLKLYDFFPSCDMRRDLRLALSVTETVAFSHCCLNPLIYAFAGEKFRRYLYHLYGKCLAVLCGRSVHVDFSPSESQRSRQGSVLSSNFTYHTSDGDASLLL

T2: human CX3CR1 (human, UniProt P49238 1-355)
T2 construct: overexpressed on CHO, BA/F3 or HEK293T cells; also called huCX3CR1; hCX3CR1
T2 sequence: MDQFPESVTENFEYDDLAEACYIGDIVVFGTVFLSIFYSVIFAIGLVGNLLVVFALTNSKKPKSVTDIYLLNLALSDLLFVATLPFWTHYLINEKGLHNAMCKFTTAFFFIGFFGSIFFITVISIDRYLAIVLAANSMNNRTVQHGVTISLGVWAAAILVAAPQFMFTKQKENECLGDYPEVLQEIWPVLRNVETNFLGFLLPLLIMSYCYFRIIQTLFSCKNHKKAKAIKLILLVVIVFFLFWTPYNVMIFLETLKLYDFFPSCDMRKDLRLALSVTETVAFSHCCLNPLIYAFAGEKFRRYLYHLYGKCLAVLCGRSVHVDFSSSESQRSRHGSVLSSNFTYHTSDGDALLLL

B1: CX3CR1BII016 (VHH)
chain: EVQLVESGGGSVQAGESLRLSCAASGSIFSSNAMAWYRQAPGKQRDLVAVINSVGITKYADSVKGRFTISGDNAKNTVYLQMNSLKPEDTAVYYCTSDARRGWDTRYWGQGTQVTVSSGGGGSGGGGSGGGGSGGGGSGGGGSGGGGSGGGGSEVQLVESGGGSVQAGESLRLSCAASGSIFSSNAMAWYRQAPGKQRDLVAVINSVGITKYADSVKGRFTISGDNAKNTVYLQMNSLKPEDTAVYYCTSDARRGWDTRYWGQGTQVTVSS
notes: expressed in E. coli as described for the monovalent VHHs
B2: CX3CR1BII018 (VHH)
chain: B1 chain with Q44R, V50A, I56V, G71R, A99P, Q197R, V203A, I209V, G224R, A252P
modifications: A647 label where used as labeled competitor (Example 14)
notes: expressed in E. coli as described for the monovalent VHHs; also called A647-018; A647 labeled CX3CR1BII018
B3: CX3CR1BII020 (VHH)
chain: B1 chain with V50G, G71R, V78A, A99P, Q113L, V203G, G224R, V231A, A252P, Q266L
notes: as for B1
B4: CX3CR1BII019 (VHH)
chain: B1 chain with V2M, V50L, G71R, A99G, V155M, V203L, G224R, A252G
notes: as for B1
B5: CX3CR1BIIPMP11H11 (VHH)
VHH: EVQLVESGGGLVQAGGSLRLSCVASGRTFSSYAMGWFRQAPGKERAFVAGISGSASRKYYADSVKGRFTVSRDNARNTVYLQMNSLKPEDTAVYYCAASNSYPKVQFDYYGQGTQVTVSS
notes: family 9; also called CX3CR1BII11H11; not shown: C-terminal c-myc and His6 tags
B6: CX3CR1BII017 (VHH)
chain: EVQLVESGGGSVQAGESLRLSCAASGSIFSSNAMAWYRQAPPGKQRDLVALINSVGITKYADSVKGRFTISSDNAKNTVYLEMNSLKPEDTAVYYCTSDGRRGWDTRYWGQGTQVTVSSGGGGSGGGGSGGGGSGGGGSGGGGSGGGGSGGGGSEVQLVESGGGSVQAGESLRLSCAASGSIFSSNAMAWYRQAPPGKQRDLVALINSVGITKYADSVKGRFTISSDNAKNTVYLEMNSLKPEDTAVYYCTSDGRRGWDTRYWGQGTQVTVSS
notes: as for B1

What was measured:
[1] = target: T1, cynomolgus CX3CR1; assay: A647-fractalkine competition FACS, cynomolgus against human CX3CR1
Protocol: (§1) For later identified VHHs, a human Fractalkine competition FACS was set up using human or cynomolgus CX3CR1 expressed in HEK293T cells. Both the human and the cynomolgus receptor was transiently transfected in HEK293T cells and transfections were matched by the binding of the labeled ligand, human fractalkine. The competition was evaluated using the EC30 concentration of fractalkine and as such obtained IC50 values are a good estimate of the Ki value, a measure for affinity (Table 22). The experiment was performed as described in Example 4. The ratio of the IC50 values on cynomolgus monkey and human CX3CR1 was used to evaluate potential differences in affinity for CX3CR1 in both species.
(§2) Also for the bivalent constructs the cross reactivity towards cynomolgus CX3CR1 was evaluated and compared with the human reactivity. As described earlier, either a binding setup (Table 27) or a ligand competition setup (Table 28) were applied using transient transfected HEK293T cells. Batches of transient transfected cells were matched by their receptor expression level.

[2] = target: T2, human CX3CR1; assay: A647-fractalkine competition FACS, HEK293T human CX3CR1
Protocol: as §1, §2

[3] = target: T1, cynomolgus CX3CR1; assay: A647-fractalkine competition FACS, HEK293T cynomolgus CX3CR1
Protocol: as §1, §2

[4] = target: T2, human CX3CR1; assay: cell-based or functional assay
[5] = target: T2, human CX3CR1; assay: A647-fractalkine competition FACS, HEK293-huCX3CR1
[6] = target: T2, human CX3CR1; assay: competition FACS, BA/F3-huCX3CR1; competitor alexa647-labeled 66B02
From the text: A competitive binding experiment was setup in order to determine whether the VHHs bind overlapping epitopes on CX3CR1. For this, the VHH 66B02 labeled with alexa647 was used in a competition FACS on the BA/F3 cells expressing huCX3CR1. Representative VHHs from the three functional families were used as competitors for the binding of the labeled 66B02.

[7] = target: T2, human CX3CR1; assay: FACS binding on human CX3CR1 cells, anti-c-myc detection
Protocol: Initially, a FACS based binding setup was used to evaluate the cynomolgus cross reactivity. For this, the VHHs were incubated with the respective cells for 30 minutes at 4° C. followed by three wash steps and subsequently incubated with the detection reagents. As detection, a mouse anti-cmyc antibody (Serotec, MCA2200) followed by a goat anti-mouse antibody coupled to PE (Jackson 115-116-071) was used, each incubation for 30 minutes at 4° C., followed by three wash steps.

[8] = target: T2, human CX3CR1; assay: A647-fractalkine competition FACS, BA/F3-huCX3CR1
From the text: (§3) Periplasmic extracts were screened in a human CX3CR1/human Fractalkine FACS competition assay to assess the blocking capacity of the expressed VHHs. Human CX3CR1 was presented on CHO cells overexpressing CX3CR1. Both a setup using cells harvested from an actively growing culture and a setup using frozen cells was used. As a detection reagent labeled fractalkine was used (R&D Systems, Minneapolis, Minn., USA) labeled with alexa647 (A647-Fractalkine) at a degree of labeling of 1. To setup the assay, first a titration series of the labeled fractalkine was performed on the CHO-huCX3CR1 cells in order to determine the EC50 value for binding. Initially screening was performed at a higher concentration of fractalkine (3 nM) to increase the assay robustness. To increase the sensitivity of the screening to a maximum, the EC30 concentration (1 nM) was chosen for subsequent screening. In brief 50 μl of periplasmic extract was added to 6 nM labeled fractalkine (50 μ;) and 200 000 CHO-huCX3CR1 cells. After one hour incubation at 4 C, cells were washed three times before read out was performed on a FACS Array (Becton Dickinson). First a gate was set on the intact cells as determined from the scatter profile. Next, dead cells were gated out by their fluorescence profile from the PI stain (Sigma, St Louis, US). The fluorescence profile from the alexa647 label was determined for each sample and used for calculation of blocking capacity. As controls, conditions were taken along where there was no VHH present in the peri extract or a known irrelevant VHH and samples were included where excess cold fractalkine was included. For each sample the percentage block was determined using the control samples to determine the assay window.
(§4) The blocking capacity towards the ligand fractalkine of the VHHs was evaluated in a human CX3CR1 competition FACS as outlined in Example 4. Either CHO-huCX3CR1 cells, BA/F3-huCX3CR1 cells or transiently transfected HEK293T cells were used. The amount of labeled ligand used in the different competition setups was also varied. The IC₅₀ values for VHHs blocking the interaction of human fractalkine to human CX3CR1 are depicted in Table 19.

[9] = target: T2, human CX3CR1; assay: periplasmic extract, A647-fractalkine competition FACS, CHO-huCX3CR1
Method in brief: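 Periplasmic VHH extracts competed with Alexa647-fractalkine (EC30, 1 nM; 3 nM initially) for binding to live or frozen CHO cells overexpressing human CX3CR1, 1 h at 4 C. FACS read on intact, PI-negative cells; percent block derived using no-VHH, irrelevant-VHH and excess cold fractalkine controls.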

[10] = target: T2, human CX3CR1; assay: cell-based or functional assay; remark: listed apart in the source
[11] = target: T2, human CX3CR1; assay: A647-fractalkine competition FACS, CHO-huCX3CR1
From the text: as §3, §4

Binder | ratio (cynomolgus/human IC50) [1] | % block [2] [%] | IC50 [2] [pM] | % block [3] [%] | IC50 [3] [pM] | % block, fractalkine induced chemotaxis [4] [%] | IC50, fractalkine induced chemotaxis [4] [pM] | % block [5] [%] | IC50 [5] [pM] | % block [6] [%] | IC50 [6] [pM] | EC50 [7] [pM] | % block [8] [%] | IC50 [8] [pM] | % block [9] [%] | % block, fractalkine induced chemotaxis [10] [%] | IC50, fractalkine induced chemotaxis [10] [pM] | % block [11] [%] | IC50 [11] [pM]
B1 | 3.67 | 102 | 190 | 98 | 690 | 88 | 2000 | 102 | 190 | – | – | – | – | – | – | – | – | – | –
B2 | 3.33 | 102 | 30 | 97 | 100 | 98 | 600 | 102 | 300 | – | – | – | – | – | – | – | – | – | –
B3 | 1.47 | 102 | 220 | 97 | 320 | 85 | 2000 | 102 | 220 | – | – | – | – | – | – | – | – | – | –
B4 | 2.86 | 100 | 290 | 96 | 820 | 85 | 2000 | 100 | 290 | – | – | – | – | – | – | – | – | – | –
B5 | – | – | – | – | – | – | – | – | – | 100 | 4900 | 800 | 100 | 8100 | 99 | 89 | 200000 | 100 | 17000
B6 | 5.34 | 99 | 310 | 95 | 1600 | 89 | 3000 | 99 | 310 | – | – | – | – | – | – | – | – | – | –
